We go through 2 molecules from article PMC6829469, “A Genome-Centric Approach Reveals a Novel Glycosyltransferase from the GA A07 Strain of Bacillus thuringiensis Responsible for Catalyzing 15-O-Glycosylation of Ganoderic Acid A” (International Journal of Molecular Sciences, 2019).

The test system of data set [1] is [H][C@@]12C[C@H](O)C3=C(C(=O)C[C@]4(C)[C@@]([H])([C@H](C)CC(=O)C[C@@H](C)C(=O)O)C[C@H](O)[C@@]34C)[C@@]1(C)CCC(=O)C2(C)C. Description: purified protein. The note with it: 10 mM UDP-glucose, 10 mM MgCl2, 50 mM Tris pH 8.0, 40 °C.
Description: UPLC of GAA-15-O-beta-glucoside formation, Michaelis-Menten nonlinear fit on BsUGT489
Substrate in data set [2]: [H][C@@]12C[C@H](O)C3=C(C(=O)C[C@]4(C)[C@@]([H])([C@H](C)CC(=O)C[C@@H](C)C(=O)O)C[C@H](O)[C@@]34C)[C@@]1(C)CCC(=O)C2(C)C
Description: UPLC of GAA-15-O-beta-glucoside formation, Michaelis-Menten nonlinear fit. It counts as biochemical, Bacillus spizizenii. The note with it: 10 mM UDP-glucose, 10 mM MgCl2, 50 mM Tris pH 8.0, 40 °C. The source says: UPLC of GAA-15-O-beta-glucoside formation, Michaelis-Menten nonlinear fit on BsUGT398

BsUGT489 (Bacillus spizizenii): in data set [1], the Km (commonly the concentration of substrate that gives half-maximal velocity) worked out at 793.96 ± 124.09 µM; the kcat – broadly, the number of substrate molecules converted per active site and unit of time at saturation – was 0.934 ± 0.0626 s⁻¹; the kcat/Km (usually the second-order rate constant that governs catalysis at low substrate concentration) was 1180 ± 200 M⁻¹ s⁻¹.

B1: BsUGT398 (Bacillus spizizenii str. W23) (protein)
chain: MKTVLILNFPAEGHVNPTLGITKAFADRGYDVHYISTEKYKERLEAVGATVHLHQDLLRTTPINIASPNGILDFLKIHIKTSLDILHIVKELSKSIQFDFVYYDKFGAGELVRDYLNIPGISSSASFLFGEEHLKILPLHPDSEVPLQLDKQCEDLLLEMKQNYGVSPENMVQFMNNKGELNVVYTSRYFQPESHRFGDEFLFIGPSFPKRAEKTDFPTDKLKDEKVIYISMGTVLDETEEFFNLCIDAFSDVKGKVVIAAGEKADLTKLKQAPENFIIASYVPQLEVLEQSDVFITHGGMNSVNEGIHFNVPLVVMPHDKDQPMVAQRLTELQAGYTVSKDHVTAQSLKHAVEEVLNNDRYKEGIQKINRSFQDCMNMEEVMERIDQFIEQRK
notes: recombinant purified, obtained from the authors' previous study; GT1 family
For the molecule B1, in data set [2], the Km was determined as 90.71 ± 14.86 µM, the kcat turned out to be 0.14 ± 0.0051 s⁻¹ and the kcat/Km amounted to 1540 ± 259 M⁻¹ s⁻¹.
